In US20240076343A1 (CEPHALON, published 2024):
Positions count from the first letter of the chain named. Values belong to the binder of their own block, whether it stands above or below them.

Assays:
[1] = biological target: human PD-1 on Jurkat Effector cells of the PD-1/PD-L1 blockade bioassay (Promega, Cat #J1255) (human, UniProt Q15116 25-288); assay: cell-based or functional assay
[2] = biological target: T1, native human PD-1 on PMA/ionomycin-activated primary human T cells (human, UniProt Q15116 25-288); assay: flow cytometry, activated human CD3+CD4+ T cells
T1 construct: whole, on cells; also called native hPD-1
Procedure: (§1) The binding of anti-hPD-1 antibodies and anti-hPD-1-attenuated hIL-2 fusion proteins on activated primary T cells expressing hPD-1 was examined by flow cytometry. […] Cells were then stained with 1:20 dilution of Allophycocyanin-conjugated anti-human IgG Fc to detect bound antibody. To delineate immune subsets, a cocktail of surface markers included anti-human CD3, anti-CD4, and anti-CD8 antibodies was used. […] Cells were analyzed on the BD Fortessa (BD Biosciences), FlowJo software version 10 was used to gate on T cell subsets then calculate gMFI of the allophycocyanin signal. EC₅₀ values were calculated from the gMFI across the titrated concentrations using GraphPad Prism 7 software. To test the binding of anti-hPD-1-hIL-2 fusion proteins, cryopreserved CD3+ T cells were activated with PMA/ionomycin and flow cytometry binding was performed identically as described above.

[3] = biological target: T1, native human PD-1 on …; assay: flow cytometry, activated human CD3+CD8+ T cells
Procedure: as §1

[4] = biological target: T2, native cynomolgus PD-1 on PMA/ionomycin-activated cynomolgus T cells (cynomolgus, UniProt B0LAJ3 25-288); assay: flow cytometry, activated cynomolgus CD3+CD4+ T cells
Procedure: (§2) Human PD-1 antibody-attenuated hIL-2 fusion proteins were also tested for binding to activated cynomolgus T cells using flow cytometry. […] 24 hours later, cells were stained using the same procedure as binding to human PD-1 primary cells described above except cynomolgus cross-reactive markers were used. FlowJo software version 10 was used to gate on live, CD3⁺CD4⁺ or CD3⁺CD8⁺ T cells and then to calculate gMFI of the Allophycocyanin signal. EC₅₀ values were calculated from the gMFI across the titrated concentrations of anti-hPD-1 antibodies or hPD-1 antibody-attenuated hIL-2 fusion proteins using GraphPad Prism 7 software.

[5] = biological target: T2, native cynomolgus PD-1 on …; assay: flow cytometry, activated cynomolgus CD3+CD8+ T cells
Procedure: as §2

[6] = biological target: T3, human PD-1 (amino acids 1-185) on transfected Jurkat cells (human, UniProt Q15116 21-185); assay: flow cytometry on Jurkat cells expressing hPD-1; no competitor
T3 construct: also called hPD-1; Jurkat+hPD-1 cell line
Procedure: (§3) Briefly, Jurkat cells stably expressing hPD-1 (as described in Protocol A above) were washed and re-suspended in FACS buffer containing 1:50 dilution of human FcR Blocking reagent. Cells were incubated at 4° C. for 10 minutes and washed. […] Cells were washed and incubated with test antibodies or antibody-attenuated hIL-2 fusion proteins serially diluted six-fold for an 8-point curve in 100 μL volume for one hour at 4° C. To detect bound test anti-hPD-1 antibodies or anti-hPD-1-attenuated hIL-2 fusion proteins, cells were washed again and incubated with 1:40 dilution of Allophycocyanin-conjugated anti-human IgG Fc monoclonal antibody for 45 minutes on ice. Cells were washed and re-suspended in FACS buffer containing 1:1000 dilution of Sytox Green (Thermo Fisher). […] Flow cytometry was carried out on the BD Canto II, BD Celesta, or BD Fortessa (BD Biosciences) flow cytometers and gMFI was calculated using FlowJo software version 10. EC₅₀ values were calculated from the gMFI of the Allophycocyanin signal across the titrated concentrations using GraphPad Prism 7 software.

[7] = biological target: T3, human PD-1 (amino acids 1-185) on …; assay: flow cytometry, Jurkat+hPD-1 cells; competitor 10 µM anti-hPD-1 #1-mIgG2b-N297A
Procedure: as §3

[8] = biological target: T3, human PD-1 (amino acids 1-185) on …; assay: flow cytometry on Jurkat cells expressing hPD-1; cells pre-incubated with 10 µM anti-hPD-1 #1-mIgG2b-N297A
Procedure: as §3

[9] = biological target: T3, human PD-1 (amino acids 1-185) on …; assay: flow cytometry on Jurkat cells expressing hPD-1; cells pre-incubated with 10 µM anti-hPD-1 #2-mIgG2b-N297A
[10] = biological target: T4, human PD-1 on Jurkat cells (Jurkat+hPD-1) (human, UniProt Q15116 21-185); assay: flow cytometry on Jurkat cells expressing hPD-1
T4 construct: extracellular domain and a portion of the transmembrane domain, stably expressed on Jurkat cells
Procedure: EC₅₀ values were calculated from the geometric mean fluorescent intensity (gMFI) across the titrated concentrations using GraphPad Prism 7 software.

[11] = biological target: T3, human PD-1 (amino acids 1-185) on …; assay: flow cytometry, Jurkat+hPD-1 cells
[12] = biological target: T3, human PD-1 (amino acids 1-185) on …; assay: flow cytometry on Jurkat cells expressing hPD-1; no competitor; remark: listed apart in the source
Procedure: as §3

[13] = biological target: T3, human PD-1 (amino acids 1-185) on …; assay: flow cytometry on Jurkat cells expressing hPD-1; cells pre-incubated with 10 µM anti-hPD-1 #1-mIgG2b-N297A; remark: listed apart in the source
Procedure: as §3

[14] = biological target: T3, human PD-1 (amino acids 1-185) on …; assay: flow cytometry on Jurkat cells expressing hPD-1; cells pre-incubated with 10 µM anti-hPD-1 #2-mIgG2b-N297A; remark: listed apart in the source
Procedure: as §3

[15] = biological target: T5, recombinant His-tagged human PD-1 (Acro Biosystems) (human, UniProt Q15116 25-167); assay: SPR, steady state, separate experiment; separate experiment; steady state KD
T5 construct: also called recombinant human PD-1; human PD-1 (Acro Biosystems, Cat #PD-1-H5221-100 ug)

[16] = biological target: T3, human PD-1 (amino acids 1-185) on …; assay: flow cytometry on Jurkat cells expressing hPD-1; no competitor; remark: listed apart in the source
Procedure: as §3

[17] = biological target: T3, human PD-1 (amino acids 1-185) on …; assay: flow cytometry on Jurkat cells expressing hPD-1; cells pre-incubated with 10 µM anti-hPD-1 #1-mIgG2b-N297A; remark: listed apart in the source
Procedure: as §3

[18] = biological target: T3, human PD-1 (amino acids 1-185) on …; assay: flow cytometry on Jurkat cells expressing hPD-1; cells pre-incubated with 10 µM anti-hPD-1 #2-mIgG2b-N297A; remark: listed apart in the source
Procedure: as §3

T1 sequence (Q15116 25-288): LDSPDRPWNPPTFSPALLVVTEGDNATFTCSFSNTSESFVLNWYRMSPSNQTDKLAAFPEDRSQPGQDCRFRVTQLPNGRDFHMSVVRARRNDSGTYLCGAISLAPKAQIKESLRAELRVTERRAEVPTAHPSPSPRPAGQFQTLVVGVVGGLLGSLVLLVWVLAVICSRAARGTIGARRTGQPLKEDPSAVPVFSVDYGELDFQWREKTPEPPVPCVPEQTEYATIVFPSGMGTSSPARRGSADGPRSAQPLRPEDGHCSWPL
human PD-1 on Jurkat Effector cells of the PD-1/PD-L1 blockade bioassay (Promega, Cat #J1255), sequence (Q15116 25-288): as above
T4 sequence (Q15116 21-185 limits assumed): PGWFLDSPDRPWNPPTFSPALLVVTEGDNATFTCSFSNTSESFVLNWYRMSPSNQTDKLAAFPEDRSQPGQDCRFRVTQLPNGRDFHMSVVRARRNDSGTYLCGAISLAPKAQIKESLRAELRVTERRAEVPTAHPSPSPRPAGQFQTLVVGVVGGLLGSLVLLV
T3 sequence (Q15116 21-185 limits assumed): as above
T2 sequence (B0LAJ3 entry or part of it limits assumed): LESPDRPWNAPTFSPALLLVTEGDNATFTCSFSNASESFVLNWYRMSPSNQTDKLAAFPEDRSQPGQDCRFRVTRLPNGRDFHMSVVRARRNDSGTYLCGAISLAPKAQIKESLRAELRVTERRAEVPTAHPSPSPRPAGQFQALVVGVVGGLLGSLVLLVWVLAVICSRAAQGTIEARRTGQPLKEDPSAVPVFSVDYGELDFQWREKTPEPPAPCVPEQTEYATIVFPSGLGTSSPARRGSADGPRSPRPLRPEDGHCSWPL
T5 sequence (Q15116 25-167 limits assumed): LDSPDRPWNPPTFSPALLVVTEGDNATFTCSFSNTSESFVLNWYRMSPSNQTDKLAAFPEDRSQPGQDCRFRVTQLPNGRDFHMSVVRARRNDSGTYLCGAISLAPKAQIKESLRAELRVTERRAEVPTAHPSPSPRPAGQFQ

- luminescence (RLU), PD-1/PD-L1 blockade bioassay [1]: ~3000 RLU
- EC50 [2]: 0.1 to 0.7 nM
- EC50 [3]: 0.1 to 0.8 nM
- EC50 [4]: 0.09 nM
- EC50 [5]: 0.08 nM
- EC50 (read off the curve) [6]: ~0.3 nM
- fold shift of the dose-titration curve [7]: < 10 fold
- EC50 (read off the curve) [8]: ~0.5 nM
- EC50 (read off the curve) [9]: ~2 nM
B1: 2H7-hIgG4 (antibody)
heavy: not shown
light: EIVLTQSPGTLSLSPGERATLSCRASQSIGKSFLAWYQQKPGQAPRLLIYDASTRAADIPARFSGSGSGTDFTLTISSLEPEDFAVYYCQQYYDWPPLSFGGGTKVEIKRTVAAPSVFIFPPSDEQLKSGTASVVCLLNNFYPREAKVQWKVDNALQSGNSQESVTEQDSKDSTYSLSSTLTLSKADYEKHKVYACEVTHQGLSSPVTKSFNRGEC

- EC50 [10]: 0.277 nM
B2: 2H7-hIgG4 (antibody)
heavy: not shown
light: B1 light

- luminescence (RLU), PD-1/PD-L1 blockade bioassay [1]: ~3000 RLU
B3: OMC.2.C6-hIgG4 (antibody, V domains shown)
VH: EVQLLESGGGLVQPGGSLRLSCTASGFTFSSYEMQWVRQAPGKGLEWVLGITSSSSHIFYADSVKGRFTVSRDNSKNTLYLQMNSLRAEDTAVYYCTKDLNSYYGLDVWGQGTTVTVSS
VL: QSVMTQPPSASGTPGQRVTISCSGSTSNLGNNYVSWYQHLPGTAPKLLIYGNDQRPSGVPDRFSGSKSGTSASLAISGLQSDDEADYYCSSWDASLNVWVFGGGTKLTVLG

- EC50 [10]: 11.5 nM
B4: OMC.2.C6-hIgG4 (antibody, V domains shown)
VH: B3 VH
VL: B3 VL

- luminescence (RLU), PD-1/PD-L1 blockade bioassay [1]: ~3000 RLU
- EC50 [11]: 2 to 4 nM
- EC50 [2]: 12 nM
- EC50 [3]: 16 nM
- EC50 (read off the curve) [12]: ~2 nM
- fold shift of the dose-titration curve [7]: < 10 fold
- EC50 (read off the curve) [13]: ~9 nM
- EC50 (read off the curve) [14]: ~8 nM
B5: C51E6-5-hIgG4 (antibody, V domains shown)
VH: QVQLVQSGSELKKPGASVKVSCKASGYSLYGTSMHWVRQAPGQGLEWMGYISPFTGRATYAQGFTGRFVFSLDTSVSTAYLQISSLKAEDTAVYYCARDYDYRYYYAMDYWGQGTTVTVSS
VL: EIVLTQSPDFQSVTPKEKVTITCTASESVPPQFLHWYQQKPDQSPKLLIYASRERASGVPSRFSGSGSGTDFTLTINSLEAEDAATYYCHQFHRSPLTFGGGTKLEIKR

- EC50 [10]: 2.05 nM
B6: C51E6-5-hIgG4 (antibody, V domains shown)
VH: B5 VH
VL: B5 VL

- luminescence (RLU), PD-1/PD-L1 blockade bioassay [1]: ~3000 RLU
B7: OMC.1.B6-hIgG4 (antibody, V domains shown)
VH: EVQLLESGGGLVQPGGSLRLSCAASGFTFSSNYMSWVRQAPGKGLEWVSAISSSGGTIFYADSVKGRFTISRDNSKNTLYLQMNSLRAEDTAVYYCAKHKWNAVYYDGMDVWGQGTTVTVSS
VL: QSVLTQPPSASGTPGQRVTISCSGSNSNIGRNLVNWYQQLPGTAPKLLIYTIDQRPSGVPDRFSGSKSGTSASLVISGLQSEDEADYYCAAWDGSLNAWVFGGGTKLTVLG

- EC50 [10]: 7.42 nM
B8: OMC.1.B6-hIgG4 (antibody, V domains shown)
VH: B7 VH
VL: B7 VL

- EC50 [10]: 16 nM
B9: OMC.1.D6-hIgG4 (antibody, V domains shown)
VH: B7 VH with S31D, N32Y, T69I, A103D, G108A
VL: B7 VL with I52V, V75A, Q80A, G94S, A98S

- luminescence (RLU), PD-1/PD-L1 blockade bioassay [1]: ~3000 RLU
B10: OMC.1.D6-hIgG4 (antibody, V domains shown)
VH: B7 VH with S31D, N32Y, T69I, A103D, G108A
VL: B7 VL with I52V, V75A, Q80A, G94S, A98S

- Kd [15]: 1.23 nM
B11: H7-632-hIgG1-LAGA (antibody, V domains shown)
VH: EVQLLESGGGLVQPGGSLRLSCAASGFTFKSYAMHWVRQAPGKGLEWVSAIVYSGGSTYYADSVKGRFTISRDNSKNTLYLQMNSLRAEDTAVYYCAKYDRASYFYDAMDVWGQGTTVTVSS
VL: EIVLTQSPGTLSLSPGERATLSCRASQSISSSFLAWYQQKPGQAPRLLIYDASDRATGIPDRFSGSGSGTDFTLTISRLEPEDFAVYYCQQYYDWPPLSFGGGTKVEIKR

- EC50 [10]: 0.115 nM
B12: H7-632-hIgG1-LAGA (antibody, V domains shown)
VH: B11 VH
VL: B11 VL

- luminescence (RLU), PD-1/PD-L1 blockade bioassay [1]: ~3000 RLU
- EC50 [2]: 30 nM
- EC50 [3]: 22 nM
- EC50 (read off the curve) [16]: ~6 nM
- fold shift of the dose-titration curve [7]: < 10 fold
- EC50 (read off the curve) [17]: ~10 nM
- EC50 (read off the curve) [18]: ~20 nM
B13: A2-hIgG4 (antibody, V domains shown)
VH: DVQLVESGGGLVQPGGSLRLSCAASGFTFDISAMSWVRQAPGKGLEWVSTISGSAYSTYYADSVKGRFTISRDNSKSTLYLQMNSLRAEDTAVYYCAREIFSDYWGLGTLVTVSS
VL: QSVLTQPPSASGTPGQRVTISCSGSTSNIGRESVYWYQQLPGTAPKLLIYSNVQRPSGAPNRFSGSKSGTSASLAISGLQSEDEADYYCGTWDDSLNGWVFGGGTKLTVLG

- EC50 [10]: 5.97 nM
B14: A2-hIgG4 (antibody, V domains shown)
VH: B13 VH
VL: B13 VL

- EC50 [10]: 5.36 nM
B15: G12-hIgG4 (antibody, V domains shown)
VH: DSLVESGGGLVQPGGSLRLSCAASGFTFDISAMSWVRQAPGKGLEWVSTISGSAYSTYYADSVKGRFTISRDNSKSTLYLQMNSLRAEDTAVYYCAREIFSDYWGLGTLVTVSS
VL: B13 VL with S51L, V53S, A59V, N61D, E84V

- EC50 [10]: 9.67 nM
B16: D12-hIgG4 (antibody, V domains shown)
VH: B13 VH
VL: B13 VL with S25N, A59V, N61D
